For data set [1], the target named is T1, XPF-HLD (human, UniProt Q92889 12-672).
T1 sequence: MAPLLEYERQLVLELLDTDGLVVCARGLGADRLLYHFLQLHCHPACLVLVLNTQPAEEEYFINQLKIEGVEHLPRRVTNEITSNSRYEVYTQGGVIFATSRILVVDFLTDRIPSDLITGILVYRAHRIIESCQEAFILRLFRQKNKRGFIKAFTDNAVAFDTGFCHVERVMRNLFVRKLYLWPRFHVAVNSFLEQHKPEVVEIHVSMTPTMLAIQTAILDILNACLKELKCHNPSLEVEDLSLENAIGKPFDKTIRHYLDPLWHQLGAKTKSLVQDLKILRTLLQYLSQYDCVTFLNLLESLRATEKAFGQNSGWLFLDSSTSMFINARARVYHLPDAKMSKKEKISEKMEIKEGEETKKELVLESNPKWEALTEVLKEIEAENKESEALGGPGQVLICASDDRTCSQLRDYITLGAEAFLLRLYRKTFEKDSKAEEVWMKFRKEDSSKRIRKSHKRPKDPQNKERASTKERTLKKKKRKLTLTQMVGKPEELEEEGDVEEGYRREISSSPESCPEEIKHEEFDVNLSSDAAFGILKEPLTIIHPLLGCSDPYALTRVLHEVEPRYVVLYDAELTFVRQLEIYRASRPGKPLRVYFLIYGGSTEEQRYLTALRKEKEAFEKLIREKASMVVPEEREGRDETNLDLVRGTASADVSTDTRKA
The data set can be described thus: fluorescence polarization. (In general: In fluorescence polarisation assays a small probe gives low polarisation when free and higher when bound to something large.)

For data set [2], the target named is T1, XPF-HLD. The data set can be described thus: fluorescence polarization. This is another data set of the same source.
Data set [3] concerns the target T1, XPF-HLD. The experiment in a line: fluorescence polarization. This is another data set of the same source.
Data set [4] has as its target T2, XPF;ERCC1 (human;human, UniProt Q92889;P07992 12-916;1-297, |).
T2 sequence 1: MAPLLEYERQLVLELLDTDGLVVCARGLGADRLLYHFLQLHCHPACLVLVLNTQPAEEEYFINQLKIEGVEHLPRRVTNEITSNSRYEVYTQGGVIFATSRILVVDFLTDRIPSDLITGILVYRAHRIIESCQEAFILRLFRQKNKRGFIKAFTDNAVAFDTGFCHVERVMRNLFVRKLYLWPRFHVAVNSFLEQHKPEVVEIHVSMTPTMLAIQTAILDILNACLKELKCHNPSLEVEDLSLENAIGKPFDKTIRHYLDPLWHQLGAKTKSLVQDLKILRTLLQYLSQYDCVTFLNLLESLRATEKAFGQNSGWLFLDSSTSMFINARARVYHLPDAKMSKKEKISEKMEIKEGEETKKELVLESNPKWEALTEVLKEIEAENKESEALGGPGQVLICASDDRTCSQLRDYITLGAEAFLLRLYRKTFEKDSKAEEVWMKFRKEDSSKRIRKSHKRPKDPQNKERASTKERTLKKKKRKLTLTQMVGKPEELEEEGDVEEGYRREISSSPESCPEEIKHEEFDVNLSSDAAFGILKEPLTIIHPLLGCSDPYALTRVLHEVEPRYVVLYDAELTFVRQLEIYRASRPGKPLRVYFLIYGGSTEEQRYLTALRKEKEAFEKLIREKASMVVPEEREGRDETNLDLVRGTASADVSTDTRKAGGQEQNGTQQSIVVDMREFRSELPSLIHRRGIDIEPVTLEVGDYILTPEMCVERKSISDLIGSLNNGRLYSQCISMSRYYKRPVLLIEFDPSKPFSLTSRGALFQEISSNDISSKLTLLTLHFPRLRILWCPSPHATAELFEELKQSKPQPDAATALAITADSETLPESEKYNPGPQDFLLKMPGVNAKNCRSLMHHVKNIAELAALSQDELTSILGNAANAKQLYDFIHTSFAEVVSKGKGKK
T2 sequence 2: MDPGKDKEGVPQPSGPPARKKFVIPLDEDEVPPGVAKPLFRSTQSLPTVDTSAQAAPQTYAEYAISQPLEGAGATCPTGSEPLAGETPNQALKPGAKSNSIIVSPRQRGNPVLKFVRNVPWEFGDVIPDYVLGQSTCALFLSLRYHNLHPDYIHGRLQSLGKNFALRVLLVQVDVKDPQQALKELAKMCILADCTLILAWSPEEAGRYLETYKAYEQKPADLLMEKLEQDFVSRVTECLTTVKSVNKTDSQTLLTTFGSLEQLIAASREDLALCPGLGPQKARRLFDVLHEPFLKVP
The experiment in a line: SPR.

Like-named read-outs stand apart in the source and are kept apart here.

This is an account of results in paper PMC3401468.

What is called Kd is a measure of binding affinity in units of concentration. Read a high Kd as a looser complex. As to CAGCGCTCGGTTCCGAGCGCTG (structured_DNA) [2T stem-loop duplex (FP)], in data set [1], the dissociation constant (Kd) is 0.217 µM. CAGCGCCTGGTTTTTTTTTTTTTTTTTTTTCCAGGCGCTG (structured_DNA) [Stem10-loop20 X=C Y=T] gave a Kd in data set [2] of 0.063 µM. CAGCGCTTGGTTTTTTTTTTTTTTTTTTTTCCAAGCGCTG (structured_DNA) [Stem10-loop20 X=T Y=T]: the binding result in data set [3] is “binds”.

With CAGCGCGGGGTTTTTTTTTTTTTTTTTTTTCCCCGCGCTG (structured_DNA) [Stem10-loop20 X=G Y=G], the binding result in data set [3] is “binds”. The molecule GCGCTCGGCGTTTTT (ssDNA) [15-mer single strand (FP)] showed an equilibrium dissociation constant (Kd) in data set [1] of 0.263 µM. For CAGCGCTCGGTTCCGAGCGCTG (structured_DNA) [Duplex with 2T loop (stem10-loop2), SPR], in data set [4], the binding result is given as “no binding”.
